Measurements from IntAct's records for PubMed 36931259.

B1: 14-3-3 protein sigma (Homo sapiens), P31947 (parent)
chain: MERASLIQKAKLAEQAERYEDMAAFMKGAVEKGEELSCEERNLLSVAYKNVVGGQRAAWRVLSSIEQKSNEEGSEEKGPEVREYREKVETELQGVCDTVLGLLDSHLIKEAGDAESRVFYLKMKGDYYRYLAEVATGDDKKRIIDSARSAYQEAMDISKKEMPPTNPIRLGLALNFSVFHYEIANSPEEAISLAKTTFDEAMADLHTLSEDSYKDSTLIMQLLRDNLTLWTADNAGEEGGEAPQEPQS

Variants of: B1
Settings: with MAP3K14, Q99558
Chain of MAP3K14, Q99558 (Q99558 whole entry, looked up): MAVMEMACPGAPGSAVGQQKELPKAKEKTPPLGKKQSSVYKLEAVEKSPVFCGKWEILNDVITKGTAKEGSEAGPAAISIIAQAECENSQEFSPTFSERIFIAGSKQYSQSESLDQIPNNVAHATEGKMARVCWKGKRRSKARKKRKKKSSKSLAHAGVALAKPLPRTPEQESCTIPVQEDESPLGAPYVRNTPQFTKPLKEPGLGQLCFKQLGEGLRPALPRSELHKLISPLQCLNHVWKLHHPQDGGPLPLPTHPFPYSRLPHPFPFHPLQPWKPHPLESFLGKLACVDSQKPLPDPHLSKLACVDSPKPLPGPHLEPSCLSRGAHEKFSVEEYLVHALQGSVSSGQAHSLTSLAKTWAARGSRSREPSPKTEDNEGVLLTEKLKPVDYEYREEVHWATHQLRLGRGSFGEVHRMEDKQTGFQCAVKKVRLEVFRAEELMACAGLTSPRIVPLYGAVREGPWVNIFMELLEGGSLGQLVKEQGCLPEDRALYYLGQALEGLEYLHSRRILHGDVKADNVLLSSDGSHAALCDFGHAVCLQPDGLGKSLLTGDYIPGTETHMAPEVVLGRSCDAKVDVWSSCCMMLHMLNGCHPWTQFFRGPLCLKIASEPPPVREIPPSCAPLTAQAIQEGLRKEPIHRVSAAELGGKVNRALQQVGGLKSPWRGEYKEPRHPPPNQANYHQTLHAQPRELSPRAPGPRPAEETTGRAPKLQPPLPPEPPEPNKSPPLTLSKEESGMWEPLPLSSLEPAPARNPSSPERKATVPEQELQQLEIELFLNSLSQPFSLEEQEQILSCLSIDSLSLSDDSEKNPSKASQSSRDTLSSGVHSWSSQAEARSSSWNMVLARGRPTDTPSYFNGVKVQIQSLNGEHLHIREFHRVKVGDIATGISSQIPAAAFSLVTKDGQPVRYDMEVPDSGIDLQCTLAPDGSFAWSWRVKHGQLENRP

| effect of a mutation on the interaction | Variant |
| --- | --- |
| decreasing interaction strength | K49E;R56E;V178D |

Variants of: B1
Settings: with limk2_human LIMK2, P53671

| effect of a mutation on the interaction | Variant |
| --- | --- |
| decreasing interaction strength | K49E;R56E;V178D |

Variants of: B1
Settings: with m3k9_human MAP3K9, P80192

| effect of a mutation on the interaction | Variant |
| --- | --- |
| decreasing interaction strength | K49E;R56E;V178D |

Variants of: B1
Settings: with tesk2_human TESK2, Q96S53

| effect of a mutation on the interaction | Variant |
| --- | --- |
| decreasing interaction strength | K49E;R56E;V178D |

Variants of: B1
Settings: with mk04_human MAPK4, P31152

| effect of a mutation on the interaction | Variant |
| --- | --- |
| decreasing interaction strength | K49E;R56E;V178D |

Variants of: B1
Settings: with wnk1_human WNK1, Q9H4A3

| effect of a mutation on the interaction | Variant |
| --- | --- |
| decreasing interaction strength | K49E;R56E;V178D |

Variants of: B1
Settings: with abl1_human ABL1, P00519

| effect of a mutation on the interaction | Variant |
| --- | --- |
| decreasing interaction strength | K49E;R56E;V178D |

Variants of: B1
Settings: with mast2_human MAST2, Q6P0Q8

| effect of a mutation on the interaction | Variant |
| --- | --- |
| decreasing interaction strength | K49E;R56E;V178D |

Variants of: B1
Settings: with dyr1b_human DYRK1B

| effect of a mutation on the interaction | Variant |
| --- | --- |
| decreasing interaction strength | K49E;R56E;V178D |

Variants of: B1
Settings: with wnk4_human WNK4, Q96J92

| effect of a mutation on the interaction | Variant |
| --- | --- |
| decreasing interaction strength | K49E;R56E;V178D |

Variants of: B1
Settings: with clk3_human CLK3, P49761

| effect of a mutation on the interaction | Variant |
| --- | --- |
| decreasing interaction strength | K49E;R56E;V178D |

Variants of: B1
Settings: with cdk18_human CDK18, Q07002
Chain of cdk18_human CDK18, Q07002 (Q07002 whole entry): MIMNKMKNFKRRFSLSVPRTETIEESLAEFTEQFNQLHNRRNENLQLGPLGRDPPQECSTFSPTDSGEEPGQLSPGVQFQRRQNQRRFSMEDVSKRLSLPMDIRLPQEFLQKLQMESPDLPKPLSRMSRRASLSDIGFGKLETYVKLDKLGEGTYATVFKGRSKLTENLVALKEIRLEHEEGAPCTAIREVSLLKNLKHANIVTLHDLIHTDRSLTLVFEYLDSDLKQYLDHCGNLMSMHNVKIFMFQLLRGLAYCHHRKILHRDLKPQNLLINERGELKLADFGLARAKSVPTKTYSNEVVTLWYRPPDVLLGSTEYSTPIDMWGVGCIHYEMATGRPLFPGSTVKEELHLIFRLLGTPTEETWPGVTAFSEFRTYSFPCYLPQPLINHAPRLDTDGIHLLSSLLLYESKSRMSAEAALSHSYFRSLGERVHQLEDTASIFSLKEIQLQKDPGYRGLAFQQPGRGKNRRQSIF

| effect of a mutation on the interaction | Variant |
| --- | --- |
| decreasing interaction strength | K49E;R56E;V178D |

Variants of: B1
Settings: with lck_human LCK

| effect of a mutation on the interaction | Variant |
| --- | --- |
| decreasing interaction strength | K49E;R56E;V178D |

Variants of: B1
Settings: with ntrk3_human NTRK3, Q16288

| effect of a mutation on the interaction | Variant |
| --- | --- |
| decreasing interaction strength | K49E;R56E;V178D |

Variants of: B1
Settings: with mp2k7_human MAP2K7, O14733

| effect of a mutation on the interaction | Variant |
| --- | --- |
| decreasing interaction strength | K49E;R56E;V178D |

Variants of: B1
Settings: with kkcc1_human CAMKK1, Q8N5S9

| effect of a mutation on the interaction | Variant |
| --- | --- |
| decreasing interaction strength | K49E;R56E;V178D |

Variants of: B1
Settings: with tesk1_human TESK1, Q15569

| effect of a mutation on the interaction | Variant |
| --- | --- |
| decreasing interaction strength | K49E;R56E;V178D |

Variants of: B1
Settings: with ilk_human ILK

| effect of a mutation on the interaction | Variant |
| --- | --- |
| decreasing interaction strength | K49E;R56E;V178D |

Variants of: B1
Settings: with srpk3_human SRPK3, Q9UPE1

| effect of a mutation on the interaction | Variant |
| --- | --- |
| decreasing interaction strength | K49E;R56E;V178D |

Variants of: B1
Settings: with btk_human BTK

| effect of a mutation on the interaction | Variant |
| --- | --- |
| decreasing interaction strength | K49E;R56E;V178D |

Variants of: B1
Settings: with kpce_human PRKCE

| effect of a mutation on the interaction | Variant |
| --- | --- |
| decreasing interaction strength | K49E;R56E;V178D |

Variants of: B1
Settings: with plk2_human PLK2, Q9NYY3
Chain of plk2_human PLK2, Q9NYY3 (Q9NYY3 whole entry, looked up): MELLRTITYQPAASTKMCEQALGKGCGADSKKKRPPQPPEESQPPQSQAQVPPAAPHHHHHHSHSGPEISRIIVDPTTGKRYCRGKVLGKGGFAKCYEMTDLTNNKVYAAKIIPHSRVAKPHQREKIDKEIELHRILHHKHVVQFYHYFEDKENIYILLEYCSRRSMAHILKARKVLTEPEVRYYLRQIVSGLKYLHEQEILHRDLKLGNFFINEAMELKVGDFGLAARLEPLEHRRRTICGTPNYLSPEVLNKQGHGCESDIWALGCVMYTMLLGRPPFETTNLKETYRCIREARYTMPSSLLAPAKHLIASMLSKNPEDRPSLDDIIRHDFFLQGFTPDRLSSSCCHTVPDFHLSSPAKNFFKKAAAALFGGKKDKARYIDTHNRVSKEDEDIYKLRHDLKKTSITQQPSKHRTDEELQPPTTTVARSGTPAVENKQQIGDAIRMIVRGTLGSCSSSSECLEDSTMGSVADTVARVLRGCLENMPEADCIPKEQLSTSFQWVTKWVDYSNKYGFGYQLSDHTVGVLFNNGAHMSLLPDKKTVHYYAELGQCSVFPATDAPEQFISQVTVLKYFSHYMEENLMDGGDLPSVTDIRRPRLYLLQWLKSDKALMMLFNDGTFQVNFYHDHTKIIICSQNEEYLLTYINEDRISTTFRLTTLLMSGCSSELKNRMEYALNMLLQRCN

| effect of a mutation on the interaction | Variant |
| --- | --- |
| decreasing interaction strength | K49E;R56E;V178D |

Variants of: B1
Settings: with st32c_human STK32C

| effect of a mutation on the interaction | Variant |
| --- | --- |
| decreasing interaction strength | K49E;R56E;V178D |

Variants of: B1
Settings: with mylk2_human MYLK2, Q9H1R3

| effect of a mutation on the interaction | Variant |
| --- | --- |
| decreasing interaction strength | K49E;R56E;V178D |

Variants of: B1
Settings: with ripk2_human RIPK2, O43353

| effect of a mutation on the interaction | Variant |
| --- | --- |
| decreasing interaction strength | K49E;R56E;V178D |

Variants of: B1
Settings: with m4k4_human MAP4K4, O95819
Chain of m4k4_human MAP4K4, O95819 (O95819 whole entry, looked up): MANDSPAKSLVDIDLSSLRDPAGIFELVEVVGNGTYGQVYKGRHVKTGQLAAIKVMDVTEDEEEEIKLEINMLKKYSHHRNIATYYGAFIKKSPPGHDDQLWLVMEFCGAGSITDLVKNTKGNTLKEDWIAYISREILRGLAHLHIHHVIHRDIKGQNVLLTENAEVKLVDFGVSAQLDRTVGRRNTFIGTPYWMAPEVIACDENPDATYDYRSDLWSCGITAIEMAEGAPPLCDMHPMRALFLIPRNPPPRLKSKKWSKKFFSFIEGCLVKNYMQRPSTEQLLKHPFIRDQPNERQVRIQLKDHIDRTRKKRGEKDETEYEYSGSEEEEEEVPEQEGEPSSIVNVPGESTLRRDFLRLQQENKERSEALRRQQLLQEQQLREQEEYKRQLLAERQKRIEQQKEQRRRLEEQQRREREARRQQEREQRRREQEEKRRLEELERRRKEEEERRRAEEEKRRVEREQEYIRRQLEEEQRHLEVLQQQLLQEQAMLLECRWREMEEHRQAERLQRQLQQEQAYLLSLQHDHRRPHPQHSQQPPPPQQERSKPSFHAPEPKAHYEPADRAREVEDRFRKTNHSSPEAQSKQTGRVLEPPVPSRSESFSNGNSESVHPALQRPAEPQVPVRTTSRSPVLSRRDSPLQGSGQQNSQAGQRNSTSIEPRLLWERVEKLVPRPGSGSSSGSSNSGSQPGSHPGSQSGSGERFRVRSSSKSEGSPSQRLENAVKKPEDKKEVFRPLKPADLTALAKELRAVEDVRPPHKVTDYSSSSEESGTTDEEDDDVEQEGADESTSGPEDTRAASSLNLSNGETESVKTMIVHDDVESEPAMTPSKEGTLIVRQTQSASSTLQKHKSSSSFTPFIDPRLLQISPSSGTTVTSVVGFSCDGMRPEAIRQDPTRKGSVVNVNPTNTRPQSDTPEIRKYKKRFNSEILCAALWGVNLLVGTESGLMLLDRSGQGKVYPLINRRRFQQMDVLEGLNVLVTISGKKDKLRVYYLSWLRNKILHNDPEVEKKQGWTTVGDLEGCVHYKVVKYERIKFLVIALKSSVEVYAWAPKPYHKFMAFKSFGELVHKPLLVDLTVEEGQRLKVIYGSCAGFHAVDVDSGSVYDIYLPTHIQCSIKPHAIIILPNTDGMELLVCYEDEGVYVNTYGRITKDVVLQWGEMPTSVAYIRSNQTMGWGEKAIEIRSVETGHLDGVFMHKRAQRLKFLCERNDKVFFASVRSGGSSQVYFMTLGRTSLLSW

| effect of a mutation on the interaction | Variant |
| --- | --- |
| decreasing interaction strength | K49E;R56E;V178D |

Variants of: B1
Settings: with kc1d_human CSNK1D

| effect of a mutation on the interaction | Variant |
| --- | --- |
| decreasing interaction strength | K49E;R56E;V178D |

Variants of: B1
Settings: with ks6a2_human RPS6KA2, Q15349

| effect of a mutation on the interaction | Variant |
| --- | --- |
| decreasing interaction strength | K49E;R56E;V178D |

Variants of: B1
Settings: with alpk1_human ALPK1, Q96QP1

| effect of a mutation on the interaction | Variant |
| --- | --- |
| decreasing interaction strength | K49E;R56E;V178D |

Variants of: B1
Settings: with kc1e_human CSNK1E

| effect of a mutation on the interaction | Variant |
| --- | --- |
| decreasing interaction strength | K49E;R56E;V178D |

Variants of: B1
Settings: with kpcg_human PRKCG

| effect of a mutation on the interaction | Variant |
| --- | --- |
| decreasing interaction strength | K49E;R56E;V178D |

Variants of: B1
Settings: with fak2_human PTK2B

| effect of a mutation on the interaction | Variant |
| --- | --- |
| decreasing interaction strength | K49E;R56E;V178D |

Variants of: B1
Settings: with cdk3_human CDK3, Q00526
Chain of cdk3_human CDK3, Q00526 (Q00526 whole entry, looked up): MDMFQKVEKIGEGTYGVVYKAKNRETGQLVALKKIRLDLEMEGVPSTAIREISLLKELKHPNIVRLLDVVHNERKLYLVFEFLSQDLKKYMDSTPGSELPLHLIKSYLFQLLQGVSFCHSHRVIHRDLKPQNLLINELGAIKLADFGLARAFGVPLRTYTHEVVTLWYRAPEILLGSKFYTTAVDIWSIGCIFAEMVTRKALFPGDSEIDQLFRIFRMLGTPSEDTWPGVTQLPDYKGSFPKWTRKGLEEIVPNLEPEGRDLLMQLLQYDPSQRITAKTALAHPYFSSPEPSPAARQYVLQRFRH

| effect of a mutation on the interaction | Variant |
| --- | --- |
| decreasing interaction strength | K49E;R56E;V178D |

Variants of: B1
Settings: with limk1_human LIMK1, P53667

| effect of a mutation on the interaction | Variant |
| --- | --- |
| decreasing interaction strength | K49E;R56E;V178D |

Variants of: B1
Settings: with pak6_human PAK6, Q9NQU5
Chain of pak6_human PAK6, Q9NQU5 (Q9NQU5 whole entry, looked up): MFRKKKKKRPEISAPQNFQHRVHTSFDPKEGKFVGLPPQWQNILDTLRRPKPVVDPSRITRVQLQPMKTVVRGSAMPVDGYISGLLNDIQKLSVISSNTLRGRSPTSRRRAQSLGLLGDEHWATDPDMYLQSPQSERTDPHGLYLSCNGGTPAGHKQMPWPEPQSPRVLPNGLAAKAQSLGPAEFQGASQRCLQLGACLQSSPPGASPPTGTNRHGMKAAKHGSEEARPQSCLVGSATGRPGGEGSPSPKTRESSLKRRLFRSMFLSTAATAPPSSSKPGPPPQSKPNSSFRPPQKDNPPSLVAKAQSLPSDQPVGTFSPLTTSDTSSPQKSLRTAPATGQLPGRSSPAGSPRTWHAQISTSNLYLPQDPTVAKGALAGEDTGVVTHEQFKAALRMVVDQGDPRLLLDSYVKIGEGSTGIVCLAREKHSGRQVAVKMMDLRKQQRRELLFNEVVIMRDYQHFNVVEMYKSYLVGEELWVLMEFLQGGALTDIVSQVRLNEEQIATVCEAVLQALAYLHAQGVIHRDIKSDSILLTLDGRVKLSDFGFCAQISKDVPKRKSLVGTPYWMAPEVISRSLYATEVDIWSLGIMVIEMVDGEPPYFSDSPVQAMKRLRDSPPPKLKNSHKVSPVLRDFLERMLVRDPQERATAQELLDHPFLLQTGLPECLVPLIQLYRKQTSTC

| effect of a mutation on the interaction | Variant |
| --- | --- |
| decreasing interaction strength | K49E;R56E;V178D |

Variants of: B1
Settings: with igf1r_human IGF1R

| effect of a mutation on the interaction | Variant |
| --- | --- |
| decreasing interaction strength | K49E;R56E;V178D |

Variants of: B1
Settings: with aapk2_human PRKAA2, P54646

| effect of a mutation on the interaction | Variant |
| --- | --- |
| decreasing interaction strength | K49E;R56E;V178D |

Variants of: B1
Settings: with pak4_human PAK4, O96013
Chain of pak4_human PAK4, O96013 (O96013 whole entry, looked up): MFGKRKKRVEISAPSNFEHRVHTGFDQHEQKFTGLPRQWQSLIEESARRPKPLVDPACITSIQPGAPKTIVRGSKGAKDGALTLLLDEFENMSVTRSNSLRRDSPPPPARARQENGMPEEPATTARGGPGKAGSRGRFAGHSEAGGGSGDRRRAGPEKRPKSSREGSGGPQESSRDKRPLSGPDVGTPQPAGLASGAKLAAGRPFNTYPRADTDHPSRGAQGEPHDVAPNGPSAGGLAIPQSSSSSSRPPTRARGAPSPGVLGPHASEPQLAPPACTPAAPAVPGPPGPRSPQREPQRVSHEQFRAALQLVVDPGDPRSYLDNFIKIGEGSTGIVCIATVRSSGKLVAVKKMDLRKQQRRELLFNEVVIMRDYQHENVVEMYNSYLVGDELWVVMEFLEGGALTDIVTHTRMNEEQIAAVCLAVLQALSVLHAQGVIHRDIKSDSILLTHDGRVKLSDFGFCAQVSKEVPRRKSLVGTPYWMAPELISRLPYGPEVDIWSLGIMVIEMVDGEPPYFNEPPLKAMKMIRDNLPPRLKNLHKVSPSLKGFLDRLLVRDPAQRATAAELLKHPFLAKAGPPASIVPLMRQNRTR

| effect of a mutation on the interaction | Variant |
| --- | --- |
| decreasing interaction strength | K49E;R56E;V178D |

Variants of: B1
Settings: with pgfra_human PDGFRA

| effect of a mutation on the interaction | Variant |
| --- | --- |
| decreasing interaction strength | K49E;R56E;V178D |

Variants of: B1
Settings: with cdk17_human CDK17, Q00537

| effect of a mutation on the interaction | Variant |
| --- | --- |
| decreasing interaction strength | K49E;R56E;V178D |

Variants of: B1
Settings: with mink1_human MINK1, Q8N4C8

| effect of a mutation on the interaction | Variant |
| --- | --- |
| decreasing interaction strength | K49E;R56E;V178D |

Variants of: B1
Settings: with kcc2d_human CAMK2D

| effect of a mutation on the interaction | Variant |
| --- | --- |
| decreasing interaction strength | K49E;R56E;V178D |

Variants of: B1
Settings: with kcc2a_human CAMK2A

| effect of a mutation on the interaction | Variant |
| --- | --- |
| decreasing interaction strength | K49E;R56E;V178D |

Variants of: B1
Settings: with dapk2_human DAPK2, Q9UIK4

| effect of a mutation on the interaction | Variant |
| --- | --- |
| decreasing interaction strength | K49E;R56E;V178D |

Variants of: B1
Settings: with m4k1_human MAP4K1, Q92918

| effect of a mutation on the interaction | Variant |
| --- | --- |
| decreasing interaction strength | K49E;R56E;V178D |

Variants of: B1
Settings: with erbb4_human ERBB4, Q15303

| effect of a mutation on the interaction | Variant |
| --- | --- |
| decreasing interaction strength | K49E;R56E;V178D |

Variants of: B1
Settings: with bub1b_human BUB1B

| effect of a mutation on the interaction | Variant |
| --- | --- |
| decreasing interaction strength | K49E;R56E;V178D |
